Results taken from the supplement of paper PMC10567573.

B1: MNAT1 (parent)
chain: SLREYNDFLEEVEEIVFNLTNNVD
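Note: lentivirally expressed fusions sorted by FACS into six bins by GFP to DsRed ratio, PSI derived from sequencing read proportions per bin multiplied by bin number.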

Variants of: B1
Experiment: protein stability index of a GFP-peptide fusion (GPS, HEK-293T) (PSI 1-6); higher = more stable
Settings: c terminus: a fixed tail appended
In the case of SLREYNDFLEEVERIVFNLTNNVD [E14R], the protein stability index is reported as 2.15.
With SLREYNDFLEEVENIVFNLTNNVD [E14N] the protein stability index was 2.11.
Variant SLREYNDFLEEVEPIVFNLTNNVD [E14P] has a protein stability index of 3.38.
Work on SLREYNDFLEEVEQIVFNLTNNVD [E14Q] yielded a protein stability index of 2.46.
With SLREYNDFLEEVEYIVFNLTNNVD [E14Y] the protein stability index was 2.6.
SLREYNDFLEEVELIVFNLTNNVD [E14L] showed a protein stability index of 2.12.
For SLREYNDFLEEVEWIVFNLTNNVD [E14W], the protein stability index was 1.75.
SLREYNDFLEEVEMIVFNLTNNVD [E14M] showed a protein stability index of 2.22.
With SLREYNDFLEEVETIVFNLTNNVD [E14T] the protein stability index was 1.87.
SLREYNDFLEEVESIVFNLTNNVD [E14S] showed a protein stability index of 2.26.
Variant SLREYNDFLEEVEKIVFNLTNNVD [E14K] has a protein stability index of 1.87.
Work on SLREYNDFLEEVEVIVFNLTNNVD [E14V] yielded a protein stability index of 1.61.
In the case of SLREYNDFLEEVEEIEFNLTNNVD [V16E], the protein stability index is reported as 4.36.
In the case of SLREYNDFLEEVEEIPFNLTNNVD [V16P], the protein stability index is reported as 4.18.
For SLREYNDFLEEVEEINFNLTNNVD [V16N], the protein stability index was 4.53.
SLREYNDFLEEVEEIYFNLTNNVD [V16Y] showed a protein stability index of 2.63.
For SLREYNDFLEEVEEIKFNLTNNVD [V16K], the protein stability index was 2.84.
Variant SLREYNDFLEEVEEIAFNLTNNVD [V16A] has a protein stability index of 3.36.
In the case of SLREYNDFLEEVEEIDFNLTNNVD [V16D], the protein stability index is reported as 4.87.
Variant SLREYNDFLEEVEEITFNLTNNVD [V16T] has a protein stability index of 3.21.
Work on SLREYNDFLEEVEEIQFNLTNNVD [V16Q] yielded a protein stability index of 3.99.
SLREYNDFLEEVEEIIFNLTNNVD [V16I] showed a protein stability index of 2.46.
SLREYNDFLEEVEEILFNLTNNVD [V16L] gave a protein stability index of 1.14.
In the case of SLREYNDFLEEVEEIGFNLTNNVD [V16G], the protein stability index is reported as 3.86.
SLREYNDFLEEVEEIFFNLTNNVD [V16F] showed a protein stability index of 1.75.
SLREYNDFLEEVEEIHFNLTNNVD [V16H] showed a protein stability index of 3.86.
Variant SLREYNDFLEEVEEIRFNLTNNVD [V16R] has a protein stability index of 3.04.
For SLREYNDFLEEVEEIMFNLTNNVD [V16M], the protein stability index was 2.51.
Variant SLREYNDFLEEVEEIWFNLTNNVD [V16W] has a protein stability index of 2.83.
Variant SLREYNDFLEEVEEISFNLTNNVD [V16S] has a protein stability index of 4.58.
SLREYNDFLEEVEEICFNLTNNVD [V16C] showed a protein stability index of 3.
Work on SLREYNDFLEEVEEHVFNLTNNVD [I15H] yielded a protein stability index of 3.9.
Variant SLREYNDFLEEVEEKVFNLTNNVD [I15K] has a protein stability index of 4.08.
In the case of SLREYNDFLEEVEECVFNLTNNVD [I15C], the protein stability index is reported as 3.63.
In the case of SLREYNDFLEEVEELVFNLTNNVD [I15L], the protein stability index is reported as 1.9.
For SLREYNDFLEEVEEDVFNLTNNVD [I15D], the protein stability index was 4.82.
SLREYNDFLEEVEEYVFNLTNNVD [I15Y] showed a protein stability index of 3.35.
SLREYNDFLEEVEEQVFNLTNNVD [I15Q] showed a protein stability index of 3.87.
With SLREYNDFLEEVEEGVFNLTNNVD [I15G] the protein stability index was 4.71.
Work on SLREYNDFLEEVEENVFNLTNNVD [I15N] yielded a protein stability index of 4.25.
For SLREYNDFLEEVEERVFNLTNNVD [I15R], the protein stability index was 3.84.
SLREYNDFLEEVEETVFNLTNNVD [I15T] gave a protein stability index of 3.77.
Work on SLREYNDFLEEVEESVFNLTNNVD [I15S] yielded a protein stability index of 3.89.
Work on SLREYNDFLEEVEEMVFNLTNNVD [I15M] yielded a protein stability index of 2.51.
Work on SLREYNDFLEEVEEFVFNLTNNVD [I15F] yielded a protein stability index of 2.23.
With SLREYNDFLEEVEEVVFNLTNNVD [I15V] the protein stability index was 3.31.
In the case of SLREYNDFLEEVEEEVFNLTNNVD [I15E], the protein stability index is reported as 4.66.
Work on SLREYNDFLEEVEEPVFNLTNNVD [I15P] yielded a protein stability index of 4.71.
Work on SLREYNDFLEEVEEWVFNLTNNVD [I15W] yielded a protein stability index of 2.16.
For SLREYNDFLEEVEEAVFNLTNNVD [I15A], the protein stability index was 3.78.
SLREYNDFLEEVEEIVFNLTENVD [N21E] gave a protein stability index of 2.51.
In the case of SLREYNDFLEEVEEIVFNLTMNVD [N21M], the protein stability index is reported as 2.48.
SLREYNDFLEEVEEIVFNLTKNVD [N21K] gave a protein stability index of 1.45.
Work on SLREYNDFLEEVEEIVFNLTANVD [N21A] yielded a protein stability index of 1.42.
Variant SLREYNDFLEEVEEIVFNLTCNVD [N21C] has a protein stability index of 1.48.
Work on SLREYNDFLEEVEEIVFNLTGNVD [N21G] yielded a protein stability index of 2.58.
Work on SLREYNDFLEEVEEIVFNLTHNVD [N21H] yielded a protein stability index of 1.76.
Variant SLREYNDFLEEVEEIVFNLTYNVD [N21Y] has a protein stability index of 2.4.
For SLREYNDFLEEVEEIVFNLTLNVD [N21L], the protein stability index was 1.81.
SLREYNDFLEEVEEIVFNLTQNVD [N21Q] gave a protein stability index of 3.08.
Work on SLREYNDFLEEVEEIVFNLTSNVD [N21S] yielded a protein stability index of 1.68.
With SLREYNDFLEEVEEIVFNLTRNVD [N21R] the protein stability index was 1.95.
Work on SLREYNDFLEEVEEIVFNLTPNVD [N21P] yielded a protein stability index of 2.19.
In the case of SLREYNDFLEEVEEIVFNLTINVD [N21I], the protein stability index is reported as 1.73.
SLREYNDFLEEVEEIVFNLTTNVD [N21T] gave a protein stability index of 2.42.
SLREYNDFLEEVEEIVFNLTDNVD [N21D] showed a protein stability index of 3.
For SLREYNDFLEEVEEIVFNLTNNVI [D24I], the protein stability index was 1.85.
Variant SLREYNDFLEEVEEIVFNLTNNVA [D24A] has a protein stability index of 1.79.
Variant SLREYNDFLEEVEEIVFNLTNNVG [D24G] has a protein stability index of 2.61.
Variant SLREYNDFLEEVEEIVFNLTNNVL [D24L] has a protein stability index of 1.82.
For SLREYNDFLEEVEEIVFNLTNNVE [D24E], the protein stability index was 2.47.
SLREYNDFLEEVEEIVFNLTNNVF [D24F] showed a protein stability index of 1.87.
Work on SLREYNDFLEEVEEIVFNLTNNVC [D24C] yielded a protein stability index of 1.5.
SLREYNDFLEEVEEIVFNLTNNVK [D24K] gave a protein stability index of 1.81.
With SLREYNDFLEEVEEIVFNLTNNVH [D24H] the protein stability index was 1.88.
With SLREYNDFLEEVEEIVFNLTNNVN [D24N] the protein stability index was 1.31.
SLREYNDFLEEVEEIVFNLTNNVP [D24P] showed a protein stability index of 2.
SLREYNDFLEEVEEIVFNLCNNVD [T20C] showed a protein stability index of 2.31.
Variant SLREYNDFLEEVEEIVFNLLNNVD [T20L] has a protein stability index of 2.75.
Work on SLREYNDFLEEVEEIVFNLINNVD [T20I] yielded a protein stability index of 1.41.
SLREYNDFLEEVEEIVFNLANNVD [T20A] showed a protein stability index of 1.07.
With SLREYNDFLEEVEEIVFNLWNNVD [T20W] the protein stability index was 2.
Variant SLREYNDFLEEVEEIVFNLENNVD [T20E] has a protein stability index of 2.51.
With SLREYNDFLEEVEEIVFNLQNNVD [T20Q] the protein stability index was 2.37.
With SLREYNDFLEEVEEIVFNLFNNVD [T20F] the protein stability index was 1.5.
In the case of SLREYNDFLEEVEEIVFNLDNNVD [T20D], the protein stability index is reported as 3.91.
SLREYNDFLEEVEEIVFNLSNNVD [T20S] gave a protein stability index of 3.05.
With SLREYNDFLEEVEEIVFNLGNNVD [T20G] the protein stability index was 2.31.
For SLREYNDFLEEVEEIVFNLVNNVD [T20V], the protein stability index was 1.33.
In the case of SLREYNDFLEEVEEIVFNLHNNVD [T20H], the protein stability index is reported as 2.25.
In the case of SLREYNDFLEEVEEIVFNLRNNVD [T20R], the protein stability index is reported as 2.46.
Variant SLREYNDFLEEVEEIVFNLKNNVD [T20K] has a protein stability index of 2.41.
In the case of SLREYNDFLEEVEEIVFNLYNNVD [T20Y], the protein stability index is reported as 1.5.
With SLREYNDFLEEVEEIVFNLPNNVD [T20P] the protein stability index was 3.19.
